Target: the molecule itself
Assay: SEC-MALS; GE Superdex 200 column, Wyatt DAWN HELEOS-II and T-Rex refractometer; 100 µl of 0.5 mg/ml of each sample loaded

Protein	stoichiometry N	binding result
CHIP-T246M, His-tagged recombinant (natural protein, human, UniProt Q9UNE7 1-303, looked up, CHIP (STUB1), human, full-length protein with the SCAR16 patient mutation T246M; T246M is a mutation found in patients (p.T246M); also called T246M CHIP; source: E. coli BL21(DE3), purified (HisTrap HP); copies: 10-12) MKGKEEKEGGARLGAGGGSPEKSPSAQELKEQGNRLFVGRKYPEAAACYGRAITRNPLVAVYYTNRALCYLKMQQHEQALADCRRALELDGQSVKAHFFLGQCQLEMESYDEAIANLQRAYSLAKEQRLNFGDDIPSALRIAKKKRWNSIEERRIHQESELHSYLSRLIAAERERELEECQRNHEGDEDDSHVRAQQACIEAKHDKYMADMDELFSQVDEKRKKRDIPDYLCGKISFELMREPCIMPSGITYDRKDIEEHLQRVGHFDPVTRSPLTQEQLIPNLAMKEVIDAFISENGWVEDY	10 to 12	–
CHIP-H260Q, His-tagged recombinant (natural protein, human, UniProt Q9UNE7 1-303, looked up, CHIP (STUB1), human, full-length protein with the synthetic mutation H260Q; source: E. coli BL21(DE3), purified (HisTrap HP)) MKGKEEKEGGARLGAGGGSPEKSPSAQELKEQGNRLFVGRKYPEAAACYGRAITRNPLVAVYYTNRALCYLKMQQHEQALADCRRALELDGQSVKAHFFLGQCQLEMESYDEAIANLQRAYSLAKEQRLNFGDDIPSALRIAKKKRWNSIEERRIHQESELHSYLSRLIAAERERELEECQRNHEGDEDDSHVRAQQACIEAKHDKYMADMDELFSQVDEKRKKRDIPDYLCGKISFELMREPCITPSGITYDRKDIEEQLQRVGHFDPVTRSPLTQEQLIPNLAMKEVIDAFISENGWVEDY	–	binds
